In US20230212549A1 (3B PHARMACEUTICALS, published 2023):
Numbered stars: 1 amine (or outer) side, 2 acyl side, 3 side chain; on linkers, the order of the positions; unused ones are H or OH. Bridge positions count the residues as written; N and C are the ends. Square brackets hold non-standard residues; d marks the D form. Primed or numbered codes have the meaning given here. * marks the point of attachment. Ttds″ = 1,13-diamino-4,7,10-trioxatridecan-succinamic acid spacer, O=C(CCC(=O)[*:2])NCCCOCCOCCOCCCN[*:1]; DOTA = O=C(O)CN1CCN(CC(=O)O)CCN(CC(=O)*)CCN(CC(=O)O)CC1; mXylylene = c1cc(C[*:1])cc(C[*:2])c1; NMeF = CN[C@@H](Cc1ccccc1)C(=O)O; αMeF = C[C@](N)(Cc1ccccc1)C(=O)O; 4Pal = N[C@@H](Cc1ccncc1)C(=O)O; Tic = O=C(O)[C@@H]1Cc2ccccc2CN1; 2Thi = N[C@@H](Cc1cccs1)C(=O)O; Aic = NC1(C(=O)O)Cc2ccccc2C1; Hexanoyl = CCCCCC(=O)*

What was measured:
[1] = molecular target: Recombinant human FAP (R&D systems, #3715-SE) (human, UniProt Q12884 26-760); test: cell-based or functional assay
[2] = molecular target: T1, fibroblast activation protein (FAP) on FAP-expressing human WI-38 fibroblasts (human, UniProt Q12884 1-760); test: competitive FACS, WI-38 cells, vs Cy5 tracer m3; A = pIC50 >8.0
T1 construct: also called human FAP

B1: Ac-Met-[Cys(3MeBn)-Pro-Pro-Thr-Glu-Thi-Cys]-Asp-His-Phe-Arg-Asp-NH2 (peptide)
peptide: Ac-MCPPTE[2Thi]CDHFRD-NH2
modifications: linker 2-8 via mXylylene
SMILES: CSCC[C@H](NC(C)=O)C(=O)N[C@H]1CSCc2cccc(c2)CSC[C@@H](C(=O)N[C@@H](CC(=O)O)C(=O)N[C@@H](Cc2c[nH]cn2)C(=O)N[C@@H](Cc2ccccc2)C(=O)N[C@@H](CCCNC(=N)N)C(=O)N[C@@H](CC(=O)O)C(N)=O)NC(=O)[C@H](Cc2cccs2)NC(=O)[C@H](CCC(=O)O)NC(=O)[C@H]([C@@H](C)O)NC(=O)[C@@H]2CCCN2C(=O)[C@@H]2CCCN2C1=O
notes: also called 3BP-3193
pIC50 Category (Activity) [1]: > 8 pIC50 | pIC50 Category (FACS) [2]: > 8 pIC50

B2: Ac-Met-[Cys(3MeBn)-Pro-Pro-Thr-Glu-Phe-Cys]-Asp-His-Phe-Arg-NH2 (peptide)
peptide: Ac-MCPPTEFCDHFR-NH2
modifications: linker 2-8 via mXylylene
SMILES: CSCC[C@H](NC(C)=O)C(=O)N[C@H]1CSCc2cccc(c2)CSC[C@@H](C(=O)N[C@@H](CC(=O)O)C(=O)N[C@@H](Cc2c[nH]cn2)C(=O)N[C@@H](Cc2ccccc2)C(=O)N[C@@H](CCCNC(=N)N)C(N)=O)NC(=O)[C@H](Cc2ccccc2)NC(=O)[C@H](CCC(=O)O)NC(=O)[C@H]([C@@H](C)O)NC(=O)[C@@H]2CCCN2C(=O)[C@@H]2CCCN2C1=O
notes: also called 3BP-3200
pIC50 Category (Activity) [1]: > 8 pIC50 | pIC50 Category (FACS) [2]: > 8 pIC50

B3: Ac-[Cys(3MeBn)-Pro-Pro-Thr-Glu-Phe-Cys]-Asp-His-Phe-Arg-Asp-NH2 (peptide)
peptide: Ac-CPPTEFCDHFRD-NH2
modifications: linker 1-7 via mXylylene
SMILES: CC(=O)N[C@H]1CSCc2cccc(c2)CSC[C@@H](C(=O)N[C@@H](CC(=O)O)C(=O)N[C@@H](Cc2c[nH]cn2)C(=O)N[C@@H](Cc2ccccc2)C(=O)N[C@@H](CCCNC(=N)N)C(=O)N[C@@H](CC(=O)O)C(N)=O)NC(=O)[C@H](Cc2ccccc2)NC(=O)[C@H](CCC(=O)O)NC(=O)[C@H]([C@@H](C)O)NC(=O)[C@@H]2CCCN2C(=O)[C@@H]2CCCN2C1=O
notes: also called 3BP-3202
pIC50 Category (Activity) [1]: > 8 pIC50 | pIC50 Category (FACS) [2]: > 8 pIC50

B4: Ac-Met-[Cys(3MeBn)-Pro-Pro-Thr-Glu-Phe-Cys]-Asp-His-Ppa-Arg-Asp-NH2 (peptide)
peptide: Ac-MCPPTEFCDH[4Pal]RD-NH2
modifications: linker 2-8 via mXylylene
notes: also called 3BP-3191
pIC50 Category (Activity) [1]: > 8 pIC50 | pIC50 Category (FACS) [2]: > 8 pIC50

B5: Ac-Met-[Cys(3MeBn)-Pro-Pro-Thr-Glu-Phe-Cys]-Asp-His-Nmf-Arg-Asp-NH2 (peptide)
peptide: Ac-MCPPTEFCDH[NMeF]RD-NH2
modifications: linker 2-8 via mXylylene
SMILES: CSCC[C@H](NC(C)=O)C(=O)N[C@H]1CSCc2cccc(c2)CSC[C@@H](C(=O)N[C@@H](CC(=O)O)C(=O)N[C@@H](Cc2c[nH]cn2)C(=O)N(C)[C@@H](Cc2ccccc2)C(=O)N[C@@H](CCCNC(=N)N)C(=O)N[C@@H](CC(=O)O)C(N)=O)NC(=O)[C@H](Cc2ccccc2)NC(=O)[C@H](CCC(=O)O)NC(=O)[C@H]([C@@H](C)O)NC(=O)[C@@H]2CCCN2C(=O)[C@@H]2CCCN2C1=O
notes: also called 3BP-3188
pIC50 Category (Activity) [1]: > 8 pIC50 | pIC50 Category (FACS) [2]: > 8 pIC50

B6: Ac-Met-[Cys(3MeBn)-Pro-Pro-Thr-Glu-Phe-Cys]-Asp-His-Tic-Arg-Asp-NH2 (peptide)
peptide: Ac-MCPPTEFCDH[Tic]RD-NH2
modifications: linker 2-8 via mXylylene
SMILES: CSCC[C@H](NC(C)=O)C(=O)N[C@H]1CSCc2cccc(c2)CSC[C@@H](C(=O)N[C@@H](CC(=O)O)C(=O)N[C@@H](Cc2c[nH]cn2)C(=O)N2Cc3ccccc3C[C@H]2C(=O)N[C@@H](CCCNC(=N)N)C(=O)N[C@@H](CC(=O)O)C(N)=O)NC(=O)[C@H](Cc2ccccc2)NC(=O)[C@H](CCC(=O)O)NC(=O)[C@H]([C@@H](C)O)NC(=O)[C@@H]2CCCN2C(=O)[C@@H]2CCCN2C1=O
notes: also called 3BP-3189
pIC50 Category (Activity) [1]: > 8 pIC50 | pIC50 Category (FACS) [2]: > 8 pIC50

B7: Ac-Met-[Cys(3MeBn)-Pro-Pro-Thr-Glu-Phe-Cys]-Asp-His-Phe-Arg-asp-NH2 (peptide)
peptide: Ac-MCPPTEFCDHFR[dD]-NH2
modifications: linker 2-8 via mXylylene
SMILES: CSCC[C@H](NC(C)=O)C(=O)N[C@H]1CSCc2cccc(c2)CSC[C@@H](C(=O)N[C@@H](CC(=O)O)C(=O)N[C@@H](Cc2c[nH]cn2)C(=O)N[C@@H](Cc2ccccc2)C(=O)N[C@@H](CCCNC(=N)N)C(=O)N[C@H](CC(=O)O)C(N)=O)NC(=O)[C@H](Cc2ccccc2)NC(=O)[C@H](CCC(=O)O)NC(=O)[C@H]([C@@H](C)O)NC(=O)[C@@H]2CCCN2C(=O)[C@@H]2CCCN2C1=O
notes: also called 3BP-3213
pIC50 Category (Activity) [1]: > 8 pIC50 | pIC50 Category (FACS) [2]: > 8 pIC50

B8: Ac-Met-[Cys(3MeBn)-Pro-Pro-Thr-Glu-Phe-Cys]-Asp-His-Amf-Arg-Asp-NH2 (peptide)
peptide: Ac-MCPPTEFCDH[αMeF]RD-NH2
modifications: linker 2-8 via mXylylene
SMILES: CSCC[C@H](NC(C)=O)C(=O)N[C@H]1CSCc2cccc(c2)CSC[C@@H](C(=O)N[C@@H](CC(=O)O)C(=O)N[C@@H](Cc2c[nH]cn2)C(=O)N[C@@](C)(Cc2ccccc2)C(=O)N[C@@H](CCCNC(=N)N)C(=O)N[C@@H](CC(=O)O)C(N)=O)NC(=O)[C@H](Cc2ccccc2)NC(=O)[C@H](CCC(=O)O)NC(=O)[C@H]([C@@H](C)O)NC(=O)[C@@H]2CCCN2C(=O)[C@@H]2CCCN2C1=O
notes: also called 3BP-3203
pIC50 Category (Activity) [1]: > 8 pIC50 | pIC50 Category (FACS) [2]: > 8 pIC50

B9: Ac-Met-[Cys(3MeBn)-Pro-Pro-Thr-Glu-Phe-Cys]-Asp-His-Phe-arg-Asp-NH2 (peptide)
peptide: Ac-MCPPTEFCDHF[dR]D-NH2
modifications: linker 2-8 via mXylylene
SMILES: CSCC[C@H](NC(C)=O)C(=O)N[C@H]1CSCc2cccc(c2)CSC[C@@H](C(=O)N[C@@H](CC(=O)O)C(=O)N[C@@H](Cc2c[nH]cn2)C(=O)N[C@@H](Cc2ccccc2)C(=O)N[C@H](CCCNC(=N)N)C(=O)N[C@@H](CC(=O)O)C(N)=O)NC(=O)[C@H](Cc2ccccc2)NC(=O)[C@H](CCC(=O)O)NC(=O)[C@H]([C@@H](C)O)NC(=O)[C@@H]2CCCN2C(=O)[C@@H]2CCCN2C1=O
notes: also called 3BP-3212
pIC50 Category (Activity) [1]: > 8 pIC50 | pIC50 Category (FACS) [2]: > 8 pIC50

B10: Hex-[Cys(3MeBn)-Pro-Pro-Thr-Glu-Phe-Cys]-Asp-His-Nmf-Arg-Ttds-Lys(DOTA)-NH2 (peptide)
peptide: Hexanoyl-CPPTEFCDH[NMeF]R[Ttds″]K(DOTA)-NH2
modifications: linker 1-7 via mXylylene
SMILES: CCCCCC(=O)N[C@H]1CSCc2cccc(c2)CSC[C@@H](C(=O)N[C@@H](CC(=O)O)C(=O)N[C@@H](Cc2c[nH]cn2)C(=O)N(C)[C@@H](Cc2ccccc2)C(=O)N[C@@H](CCCNC(=N)N)C(=O)NCCCOCCOCCOCCCNC(=O)CCC(=O)N[C@@H](CCCCNC(=O)CN2CCN(CC(=O)O)CCN(CC(=O)O)CCN(CC(=O)O)CC2)C(N)=O)NC(=O)[C@H](Cc2ccccc2)NC(=O)[C@H](CCC(=O)O)NC(=O)[C@H]([C@@H](C)O)NC(=O)[C@@H]2CCCN2C(=O)[C@@H]2CCCN2C1=O
notes: also called 3BP-3275
pIC50 Category (Activity) [1]: > 8 pIC50 | pIC50 Category (FACS) [2]: > 8 pIC50

B11: Hex-[Cys(3MeBn)-Pro-Pro-Thr-Glu-Phe-Cys]-Asp-His-phe-Arg-Ttds-Lys(DOTA)-NH2 (peptide)
peptide: Hexanoyl-CPPTEFCDH[dF]R[Ttds″]K(DOTA)-NH2
modifications: linker 1-7 via mXylylene
SMILES: CCCCCC(=O)N[C@H]1CSCc2cccc(c2)CSC[C@@H](C(=O)N[C@@H](CC(=O)O)C(=O)N[C@@H](Cc2c[nH]cn2)C(=O)N[C@H](Cc2ccccc2)C(=O)N[C@@H](CCCNC(=N)N)C(=O)NCCCOCCOCCOCCCNC(=O)CCC(=O)N[C@@H](CCCCNC(=O)CN2CCN(CC(=O)O)CCN(CC(=O)O)CCN(CC(=O)O)CC2)C(N)=O)NC(=O)[C@H](Cc2ccccc2)NC(=O)[C@H](CCC(=O)O)NC(=O)[C@H]([C@@H](C)O)NC(=O)[C@@H]2CCCN2C(=O)[C@@H]2CCCN2C1=O
notes: also called 3BP-3276
pIC50 Category (Activity) [1]: > 8 pIC50 | pIC50 Category (FACS) [2]: > 8 pIC50

B12: Ac-Met-[Cys(3MeBn)-Pro-Pro-Thr-Glu-Phe-Cys]-Asp-His-Mpa-Arg-Asp-NH2 (peptide)
peptide: Ac-MCPPTEFCDHXRD-NH2
modifications: linker 2-8 via mXylylene; not fully specified (residue 11); printed as Ac-Met-[Cys(3MeBn)-Pro-Pro-Thr-Glu-Phe-Cys]-Asp-His-Mpa-Arg-Asp-NH2
notes: also called 3BP-3192
pIC50 Category (Activity) [1]: > 8 pIC50 | pIC50 Category (FACS) [2]: > 8 pIC50

B13: Ac-Met-[Cys(3MeBn)-Pro-Pro-Thr-Glu-Phe-Cys]-Asp-his-Phe-Arg-Asp-NH2 (peptide)
peptide: Ac-MCPPTEFCD[dH]FRD-NH2
modifications: linker 2-8 via mXylylene
SMILES: CSCC[C@H](NC(C)=O)C(=O)N[C@H]1CSCc2cccc(c2)CSC[C@@H](C(=O)N[C@@H](CC(=O)O)C(=O)N[C@H](Cc2c[nH]cn2)C(=O)N[C@@H](Cc2ccccc2)C(=O)N[C@@H](CCCNC(=N)N)C(=O)N[C@@H](CC(=O)O)C(N)=O)NC(=O)[C@H](Cc2ccccc2)NC(=O)[C@H](CCC(=O)O)NC(=O)[C@H]([C@@H](C)O)NC(=O)[C@@H]2CCCN2C(=O)[C@@H]2CCCN2C1=O
notes: also called 3BP-3210
pIC50 Category (Activity) [1]: > 8 pIC50 | pIC50 Category (FACS) [2]: > 8 pIC50

B14: Ac-Met-[Cys(3MeBn)-Pro-Pro-Thr-Glu-Phe-Cys]-Asp-His-phe-Arg-Asp-NH2 (peptide)
peptide: Ac-MCPPTEFCDH[dF]RD-NH2
modifications: linker 2-8 via mXylylene
SMILES: CSCC[C@H](NC(C)=O)C(=O)N[C@H]1CSCc2cccc(c2)CSC[C@@H](C(=O)N[C@@H](CC(=O)O)C(=O)N[C@@H](Cc2c[nH]cn2)C(=O)N[C@H](Cc2ccccc2)C(=O)N[C@@H](CCCNC(=N)N)C(=O)N[C@@H](CC(=O)O)C(N)=O)NC(=O)[C@H](Cc2ccccc2)NC(=O)[C@H](CCC(=O)O)NC(=O)[C@H]([C@@H](C)O)NC(=O)[C@@H]2CCCN2C(=O)[C@@H]2CCCN2C1=O
notes: also called 3BP-3211
pIC50 Category (Activity) [1]: > 8 pIC50 | pIC50 Category (FACS) [2]: > 8 pIC50

B15: Ac-Met-[Cys(3MeBn)-Pro-Pro-Thr-Glu-Phe-Cys]-Asp-His-Aic-Arg-Asp-NH2 (peptide)
peptide: Ac-MCPPTEFCDH[Aic]RD-NH2
modifications: linker 2-8 via mXylylene
SMILES: CSCC[C@H](NC(C)=O)C(=O)N[C@H]1CSCc2cccc(c2)CSC[C@@H](C(=O)N[C@@H](CC(=O)O)C(=O)N[C@@H](Cc2c[nH]cn2)C(=O)NC2(C(=O)N[C@@H](CCCNC(=N)N)C(=O)N[C@@H](CC(=O)O)C(N)=O)Cc3ccccc3C2)NC(=O)[C@H](Cc2ccccc2)NC(=O)[C@H](CCC(=O)O)NC(=O)[C@H]([C@@H](C)O)NC(=O)[C@@H]2CCCN2C(=O)[C@@H]2CCCN2C1=O
notes: also called 3BP-3190
pIC50 Category (Activity) [1]: > 8 pIC50 | pIC50 Category (FACS) [2]: > 8 pIC50
